Data: patent publication US20140057840A1, “ANTI-ANDROGENIC AGENT, SEBUM SECRETION BLOCKER, HAIR GROWTH STIMULANT, AND FOOD OR BEVERAGE” (LOTTE CO., LTD., priority 2009, published 2014)

Tests used:
[1] = biological target: T1, androgen receptor (Mus musculus, UniProt P19091); assay: Androgen receptor binding blocking test (DHT-dependent proliferation of SC-3 cells, MTT assay); assay type: cell-based; conditions: SC-3 cell, 10^−8M DHT, FIG. 2
T1 construct: An androgen-dependent mouse breast cancer cell SC-3 cell; endogenous in cells; host or cells: SC-3 mouse breast cancer cells
T1 sequence (P19091 1-899): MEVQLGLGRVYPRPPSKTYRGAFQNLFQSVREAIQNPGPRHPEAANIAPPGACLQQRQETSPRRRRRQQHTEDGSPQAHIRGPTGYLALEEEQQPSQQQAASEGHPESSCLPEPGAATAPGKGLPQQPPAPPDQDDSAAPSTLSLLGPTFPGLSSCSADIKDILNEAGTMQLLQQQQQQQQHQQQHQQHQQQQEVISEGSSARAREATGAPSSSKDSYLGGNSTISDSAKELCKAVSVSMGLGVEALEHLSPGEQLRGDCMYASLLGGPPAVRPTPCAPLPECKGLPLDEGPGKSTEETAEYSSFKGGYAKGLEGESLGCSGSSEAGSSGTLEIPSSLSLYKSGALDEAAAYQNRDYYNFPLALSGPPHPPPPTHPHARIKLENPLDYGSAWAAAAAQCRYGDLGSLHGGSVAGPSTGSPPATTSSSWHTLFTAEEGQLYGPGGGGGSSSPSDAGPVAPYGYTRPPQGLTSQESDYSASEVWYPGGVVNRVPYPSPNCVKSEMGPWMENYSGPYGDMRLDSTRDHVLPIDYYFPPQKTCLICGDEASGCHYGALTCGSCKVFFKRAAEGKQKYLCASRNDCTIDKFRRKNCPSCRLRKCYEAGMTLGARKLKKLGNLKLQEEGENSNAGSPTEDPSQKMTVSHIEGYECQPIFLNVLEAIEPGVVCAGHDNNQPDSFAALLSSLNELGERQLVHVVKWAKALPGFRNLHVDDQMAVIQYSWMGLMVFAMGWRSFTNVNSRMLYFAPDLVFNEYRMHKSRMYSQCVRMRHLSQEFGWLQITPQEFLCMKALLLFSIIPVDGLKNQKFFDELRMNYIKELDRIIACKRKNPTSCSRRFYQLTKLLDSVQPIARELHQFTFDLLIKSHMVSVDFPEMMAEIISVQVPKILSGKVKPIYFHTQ
Experimental: 24 Hours later, the culture medium was exchanged with HMB medium (0.1% BSA-containing Ham F12+MEM medium) to which the test sample and 10^−8M DHT were added, and the cell was cultured for 48 hours.
Then, in accordance with MTT assay, the cell proliferation was evaluated by measuring the absorbance at 570 nm, which is the absorption maximum of blue formazan.
To correct the influence of adherent cells, the absorbance at 650 nm was also measured simultaneously, and the difference between both absorbances was used as the produced amount of blue formazan. At the same time with the above, to examine the effect of the sample alone on SC-3 cell, the same culture and measurement were carried out by adding the sample alone, without adding DHT, to the HMB medium. […] Based on the measurement results, the binding blocking rate representing the anti-androgenic activity was determined using the following formula. […]
A: The absorbance when DHT was added but the sample was not added
B: The absorbance when DHT was not added and the sample was not added
C: The absorbance when DHT was added and the sample was added
D: The absorbance when DHT was not added but the sample was added

[2] = system: testosterone 5α-reductase; assay: Testosterone 5α-reductase blocking test; assay type: biochemical; conditions: result in words; enzyme solution S-9; FIG. 1
Experimental: 1. 0.5 ml of 5 mM Tris-HCl buffer solution (pH 7.2) was added to 0.1 ml of 3.0 mM testosterone solution (dissolved in propylene glycol).
2. Further, 0.1 ml of 6.7 mM NADPH solution (dissolved in 5 mM Tris-HCl buffer solution (pH 7.2)) and 0.05 ml of a sample solution (dissolved in 50% ethanol) were added thereto, the mixture was preheated at 37° C. and 0.1 ml of an enzyme solution (S-9, Oriental Yeast Co., Ltd.) was added to incubate for 1 hour.
In this test, cow's lactoferrin was prepared to be used as the lactoferrin, and saw palmetto was used as a control.
3. Then, 3 ml of dichloromethane was added to terminate the reaction, 0.5 ml of an internal standard solution (0.1 mg/ml of p-hydroxybenzoic acid n-hexyl ester) was added thereto followed by shaking for 10 minutes, and the mixture was centrifuged at 3000 rpm for 10 minutes.
4. The dichloromethane layer was separated, collected and dried under reduced pressure. […] The residual testosterone was measured by HPLC from the obtained sample solution.
The measurement was carried out by eluting with methanol/water (65/35) and monitoring at 254 nm under the conditions of using a YMC A-302 (internal diameter 4.6×150 mm) column at a column temperature of 40° C. at a flow rate of 1 ml/min. The measurement was carried out using the internal standard substance method and the blocking rate (%) was determined using the following formula. […]

[3] = system: hamster sebocytes; assay: Sebocyte culture test (sebum synthesis amount, Oil Red O staining); assay type: cell-based, golden hamster; conditions: medium with 1×10^−6M testosterone; for sebum synthesis amount suppressed to: about 2 weeks, FIG. 3
Experimental: 1. The test was carried out using a hamster sebocyte culture kit KB-1000 (manufactured by KURABO […] LTD.).
The sebocyte cell derived from the auricula of a normal golden hamster was inoculated in a 24-well plate in a density of 5.0×10^4 cells/well. During the test, the cell was cultured in medium containing testosterone in a concentration of 1×10^−6M.
2. The cell was cultured for several days until confluent, and the medium was exchanged with medium containing the test sample. The medium was exchanged with sample medium every other day and the culture was continued for about 2 weeks.
In this test, cow's lactoferrin was prepared to be used as the lactoferrin, and spironolactone was used as a control.
3. Then, using a sebum synthesis assay kit SE-3001 (manufactured by KURABO […], LTD.), a WST-8 solution was added to each well and incubated for 30 minutes at 37° C. The supernatant was assayed at a wavelength of 450 nm, and the number of viable cell was counted.
4. Further, the supernatant was stained with Oil Red O and observed under a microscope while extracted with 100% isopropanol and measured at a wavelength of 520 nm for the lipid synthesis amount.
The correction was made using the following formula, and the lipid synthesis amount per cell was compared.
Comparison of lipid synthesis amount per cell=absorbance B/absorbance A
Absorbance A: cell number measured value (450 nm)
Absorbance B: lipid synthesis amount measured value (520 nm)

B1: lactoferrin (protein, UniProt P24627 20-708, looked up)
Lactotransferrin: APRKNVRWCTISQPEWFKCRRWQWRMKKLGAPSITCVRRAFALECIRAIAEKKADAVTLDGGMVFEAGRDPYKLRPVAAEIYGTKESPQTHYYAVAVVKKGSNFQLDQLQGRKSCHTGLGRSAGWIIPMGILRPYLSWTESLEPLQGAVAKFFSASCVPCIDRQAYPNLCQLCKGEGENQCACSSREPYFGYSGAFKCLQDGAGDVAFVKETTVFENLPEKADRDQYELLCLNNSRAPVDAFKECHLAQVPSHAVVARSVDGKEDLIWKLLSKAQEKFGKNKSRSFQLFGSPPGQRDLLFKDSALGFLRIPSKVDSALYLGSRYLTTLKNLRETAEEVKARYTRVVWCAVGPEEQKKCQQWSQQSGQNVTCATASTTDDCIVLVLKGEADALNLDGGYIYTAGKCGLVPVLAENRKSSKHSSLDCVLRPTEGYLAVAVVKKANEGLTWNSLKDKKSCHTAVDRTAGWNIPMGLIVNQTGSCAFDEFFSQSCAPGADPKSRLCALCAGDDQGLDKCVPNSKEKYYGYTGAFRCLAEDVGDVAFVKNDTVWENTNGESTADWAKNLNREDFRLLCLDGTRKPVTEAQSCHLAVAPNHAVVSRSDRAAHVKQVLLHQQALFGKNGKNCPDKFCLFKSETKNLLFNDNTECLAKLGGRPTYEEYLGTEYVTAIANLKKCSTSPLLEACAFLTR
notes: cow's lactoferrin; protein present in secretory fluids such as milk, tears, saliva, bile of mammals
In the case of B1, the “binding blocking activity (binding blocking rate)” value ([1]; concentration of 60 ppm, 48 hours) is reported as “about 85%”, the “binding blocking activity, concentration dependence” value ([1]; result in words) is reported as “concentration-dependent binding blocking activity” and the “testosterone 5α-reductase blocking activity” value [2] is reported as “no testosterone 5α-reductase blocking activity”. For the same molecule, the “sebum synthesis amount suppressed to” value ([3]; 10 ppm) was 60%, the “sebum synthesis amount suppressed to” value ([3]; 20 ppm) was 60% and the “sebum synthesis amount, concentration dependence” value ([3]; result in words, microscopic observation and absorbance measurement) was “suppressed the sebum synthesis amount in a concentration-dependent manner”.
